Laboratory results as given in paper PMC10195141 (Acta Biochimica et Biophysica Sinica, 2023).
≈ marks a conversion by molar mass, not a printed value.

Key:
M. mulatta Gal-10 = biological target: T1, M. mulatta Gal-10 (Macaca mulatta, UniProt A0AA82WNZ0); assay: inhibition of hemagglutination of chicken erythrocytes; assay type: cell-based; conditions: 10 mM Tris-HCl, 150 mM NaCl, pH 7.5, on ice, 60 min; carbohydrate binding site
T1 sequence (A0AA82WNZ0 4-142): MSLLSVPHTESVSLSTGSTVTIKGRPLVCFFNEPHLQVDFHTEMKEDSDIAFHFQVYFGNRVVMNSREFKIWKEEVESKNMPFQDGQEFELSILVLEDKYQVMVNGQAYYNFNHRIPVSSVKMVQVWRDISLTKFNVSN

[1] = biological target: Macaca fascicularis galectin-10 (Macaca fascicularis); assay: SEC
[2] = biological target: Macaca mulatta galectin-10 (Macaca mulatta); assay: SEC

`OC[C@H]1O[C@@H](O[C@H]2[C@H](O)[C@@H](O)C(O)O[C@@H]2CO)[C@H](O)[C@@H](O)[C@H]1O` (stereo partly drawn) [lactose] gave an MIC (M. mulatta Gal-10) of 6.25 mM (≈ 2140 µg/mL).

“Macaca fascicularis galectin-10 (natural protein)” gave a stoichiometry N [1] of 2.

Molecule “Macaca mulatta galectin-10 (natural protein)” has a stoichiometry N [2] of 2.
